# Experimental data reported in publication PMC3683295.
# How the values were obtained:
# [1] = target: BCL-xLΔC (human) (UniProt Q07817); assay: native gel or EMSA
# [2] = target: BCL-xLΔLΔC (human) (UniProt Q07817); assay: native gel or EMSA
# [3] = target: BCL-xLΔLΔC (human) (UniProt Q07817); assay: NMR solution structure
# [4] = target: BCL-xLΔLΔC (human) (UniProt Q07817); assay: AUC
stoichiometry N [1],stoichiometry N [2],stoichiometry N [3],stoichiometry N [4],Substance
2,–,–,–,BCL-xLΔC (from UniProt Q07817-1 1-211) (domain or fragment)
–,2,–,–,BCL-xLΔLΔC (from UniProt Q07817-1 1-211) (domain or fragment)
1,–,1,1,PUMA^BH3 (peptide)
